Data: paper PMC5939101 (Proceedings of the National Academy of Sciences of the …, 2018)

Target: T1, His-Ivy1 (recombinant wild-type Ivy1) (S. cerevisiae, UniProt Q04934 1-453)
T1 sequence: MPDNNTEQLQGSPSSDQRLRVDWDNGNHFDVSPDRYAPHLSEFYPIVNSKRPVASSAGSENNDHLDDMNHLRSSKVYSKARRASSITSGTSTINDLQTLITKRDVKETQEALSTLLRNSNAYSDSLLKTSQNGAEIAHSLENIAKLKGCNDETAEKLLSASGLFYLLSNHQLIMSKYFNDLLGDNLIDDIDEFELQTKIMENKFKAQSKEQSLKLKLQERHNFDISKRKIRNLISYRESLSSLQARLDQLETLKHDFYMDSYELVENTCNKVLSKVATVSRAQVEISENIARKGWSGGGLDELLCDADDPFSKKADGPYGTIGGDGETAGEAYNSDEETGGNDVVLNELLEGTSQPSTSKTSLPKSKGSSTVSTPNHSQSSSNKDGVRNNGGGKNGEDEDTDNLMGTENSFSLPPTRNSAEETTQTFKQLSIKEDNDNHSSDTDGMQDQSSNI
Assay: pull-down

B1: GST-Ypt7 (natural protein)
chain: MSSRKKNILKVIILGDSGVGKTSLMHRYVNDKYSQQYKATIGADFLTKEVTVDGDKVATMQVWDTAGQERFQSLGVAFYRGADCCVLVYDVTNASSFENIKSWRDEFLVHANVNSPETFPFVILGNKIDAEESKKIVSEKSAQELAKSLGDIPLFLTSAKNAINVDTAFEEIARSALQQNQADTEAFEDDYNDAINIRLDGENNSCSC
binding result: binds
